Laboratory results reported in the Human Domainome abundance scans (Beltran et al. 2025).
± gives the uncertainty stated by the source.

B1: Apoptosis-associated speck-like protein containing a CARD, residues 114 to 194; numbered along this chain, Q9ULZ3 (parent)
chain: FIDQHRAALIARVTNVEWLLDALYGKVLTDEQYQAVRAEPTNPSKMRKLFSFTPAWNWTCKDLLLQALRESQSYLVEDLER

Variants of: B1
Experiment: abundance fitness (aPCA) (normalised: wild type 0, dead -1); higher = more abundant; growth selection in yeast, the domain comes from the species named
Conditions: Homo sapiens

Row | Variant | abundance fitness
1 | C60Q | 0.329 ± 0.068
2 | C60R | -0.265 ± 0.047
3 | T59Y | -0.102 ± 0.1
4 | T59E | 0.269 ± 0.069
5 | K48L | -0.347 ± 0.063
6 | K48D | -0.745 ± 0.26
7 | L19S | -0.853 ± 0.11
8 | L19M | -0.787 ± 0.12
9 | L19F | -0.781 ± 0.2
10 | L19K | -0.922 ± 0.36
11 | D30V | -0.339 ± 0.055
12 | D30E | -0.013 ± 0.077
13 | D30P | -0.213 ± 0.075
14 | D30K | -0.416 ± 0.12
15 | Q34H | 0.05 ± 0.095
16 | Q34N | -0.004 ± 0.12
17 | P43G | -0.27 ± 0.052
18 | P43C | -0.147 ± 0.08
19 | P43H | -0.221 ± 0.13
20 | P43T | 0.04 ± 0.068
21 | P43W | -0.313 ± 0.068
22 | E80P | -0.467 ± 0.1
23 | S71W | -0.874 ± 0.12
24 | S71L | -0.816 ± 0.1

Row | Variant | abundance fitness
25 | S71N | 0.161 ± 0.16
26 | S71A | -0.469 ± 0.11
27 | L20N | -0.797 ± 0.33
28 | L20Y | -0.626 ± 0.39
29 | N42V | -0.596 ± 0.082
30 | E70F | -0.401 ± 0.12
31 | E70T | -0.181 ± 0.1
32 | E70Y | -0.588 ± 0.23
33 | E17P | -0.705 ± 0.084
34 | E17R | -0.642 ± 0.07
35 | P40I | -0.339 ± 0.14
36 | E31F | -0.82 ± 0.19
37 | R12G | -0.17 ± 0.034
38 | F1Y | -1 ± 0.43
39 | F1D | -0.685 ± 0.28
40 | F1L | -0.809 ± 0.2
41 | E39N | -0.26 ± 0.24
42 | E39T | -0.789 ± 0.17
43 | E39H | -0.79 ± 0.38
44 | E39G | -0.669 ± 0.088
45 | M46I | -0.778 ± 0.32
46 | M46Q | -0.717 ± 0.22
47 | M46L | -0.298 ± 0.06
48 | F52G | -0.943 ± 0.077

Row | Variant | abundance fitness
49 | A8Q | -0.078 ± 0.063
50 | A8F | -0.673 ± 0.18
51 | E77A | -0.209 ± 0.069
52 | E77T | -0.63 ± 0.19
53 | Y33G | -0.69 ± 0.062
54 | Y33M | -0.189 ± 0.11
55 | Y33C | 0.121 ± 0.06
56 | G25K | 0.025 ± 0.14
57 | G25Y | -0.55 ± 0.3
58 | G25T | -0.81 ± 0.16
59 | K61Y | 0.119 ± 0.13
60 | K61N | -0.52 ± 0.2
61 | K61L | -0.901 ± 0.13
62 | K61F | 0.22 ± 0.16
63 | L64Y | -0.75 ± 0.2
64 | L64W | -0.961 ± 0.2
65 | L64I | -0.192 ± 0.15
66 | L64D | -0.519 ± 0.12
67 | S73K | -0.289 ± 0.11
68 | S73R | -0.025 ± 0.045
69 | A67H | -0.766 ± 0.33
70 | L65T | -0.343 ± 0.096
71 | L65C | -0.248 ± 0.088
72 | L65Q | -0.812 ± 0.18

Row | Variant | abundance fitness
73 | L65P | -0.939 ± 0.23
74 | L65S | -0.512 ± 0.07
75 | Q4I | -0.015 ± 0.12
76 | Q4N | -0.103 ± 0.12
77 | L68I | 0.001 ± 0.13
78 | L68E | -0.886 ± 0.19
79 | N57K | -0.492 ± 0.12
80 | N57I | -0.311 ± 0.12
81 | N57P | -0.233 ± 0.081
82 | N57H | -0.279 ± 0.21
83 | R6F | -0.538 ± 0.15
84 | R6M | -0.107 ± 0.082
85 | R6P | -0.685 ± 0.13
86 | R6Q | -0.285 ± 0.13
87 | V13E | -0.538 ± 0.11
88 | V13M | -0.611 ± 0.11
89 | V13F | -0.495 ± 0.15
90 | V13C | 0.023 ± 0.068
91 | V13H | -0.878 ± 0.26
92 | T41C | -0.28 ± 0.077
93 | A35V | -0.365 ± 0.051
94 | A22Y | -0.004 ± 0.13
95 | R37V | -0.148 ± 0.042
96 | L23E | -0.719 ± 0.14

Row | Variant | abundance fitness
97 | L23T | -0.943 ± 0.16
98 | L23H | -0.698 ± 0.34
99 | A7S | -0.014 ± 0.054
100 | A7M | -0.251 ± 0.078
101 | V36E | -0.801 ± 0.12
102 | V36R | -0.833 ± 0.1
103 | V36M | -0.837 ± 0.27
104 | V36T | -1.01 ± 0.24
105 | L49G | -0.79 ± 0.073
106 | L49E | -0.979 ± 0.15
107 | L49H | -0.664 ± 0.38
108 | Y24F | -0.594 ± 0.11
109 | Y24V | -0.054 ± 0.047
110 | Y24W | -0.301 ± 0.071
111 | V27H | -0.764 ± 0.26
112 | W56A | -0.899 ± 0.13
113 | W56D | -0.626 ± 0.32
114 | W56M | -0.108 ± 0.099
115 | D62L | -0.43 ± 0.073
116 | D62M | -0.295 ± 0.1
117 | D62I | -0.581 ± 0.17
118 | S44Y | -1.01 ± 0.28
119 | S44W | -0.531 ± 0.073
120 | S44K | -0.265 ± 0.1

Row | Variant | abundance fitness
121 | S44C | -0.268 ± 0.089
122 | R69Q | -0.716 ± 0.16
123 | W58S | 0.306 ± 0.046
124 | T53I | -0.055 ± 0.12
125 | T53V | 0.072 ± 0.04
126 | T53R | -0.466 ± 0.062
127 | L28A | -0.732 ± 0.088
128 | L28K | -0.807 ± 0.24
129 | L28P | -0.878 ± 0.14
130 | L28R | -0.871 ± 0.084
131 | D3Y | -0.794 ± 0.2
132 | D3G | -0.805 ± 0.088
133 | Q32C | -0.68 ± 0.22
134 | Q32S | -0.598 ± 0.091
135 | Q32A | -0.911 ± 0.1
136 | Q32R | -0.917 ± 0.11
137 | L75M | -0.647 ± 0.23
138 | N15H | -0.291 ± 0.11
139 | N15C | -0.718 ± 0.14
140 | N15R | -0.359 ± 0.06
141 | K45A | -0.615 ± 0.083
142 | D78Q | -0.137 ± 0.06
143 | D78V | -0.45 ± 0.083
144 | D78C | -0.124 ± 0.11

Row | Variant | abundance fitness
145 | H5N | -0.157 ± 0.12
146 | H5G | -0.833 ± 0.082
147 | H5I | -0.057 ± 0.13
148 | Q66K | -0.059 ± 0.089
149 | Q66V | -0.481 ± 0.084
150 | Q66I | -0.178 ± 0.16
151 | Y74I | -0.1 ± 0.12
152 | Y74G | 0.151 ± 0.048
153 | Q72Y | -0.332 ± 0.18
154 | Q72E | 0.116 ± 0.072
155 | K26N | -0.314 ± 0.16
156 | K26D | -0.483 ± 0.11
157 | K26Y | -0.658 ± 0.3
158 | T14S | -0.045 ± 0.052
159 | T14N | -0.206 ± 0.15
160 | L9R | -0.925 ± 0.13
161 | L9H | -0.749 ± 0.18
162 | A55F | -0.36 ± 0.32
163 | A55D | -0.061 ± 0.16
164 | A55I | -0.286 ± 0.44
165 | R47Q | -0.051 ± 0.072
166 | R47K | -0.008 ± 0.087
167 | R47D | -0.517 ± 0.16
